In the test the target is Andes virus Gc, wild type (Andes virus strain CHI-7913). In words: sucrose gradient sedimentation.

For the substance “Andes virus Gc, wild type (natural protein)”, the stoichiometry N came to 3.

These data come from article PMC5082683.
